According to patent publication US20260248947A1, “Methods of Treating Cancer Using Anti-HER2 Antibody-Drug Conjugates and HER2 Kinase Inhibitors” (Seagen Inc., priority 2023, published 2026):

What was measured:
[1] = molecular target: T1, HER2 (Homo sapiens, UniProt P04626); assay: Internalization assay of Fabfluor-labeled disitamab compared to trastuzumab (IncuCyte); format: cell-based; parameters: endogenous in cells; host or cells: SK-BR-3, BT-474, HCC-202, EFM-192C, BT-483, CAMA-1, NCI-N87, OE19, RERF-GC-1B
Experimental: The internalization experiments were conducted by detecting an antibody-bound pH sensitive probe using automated time-lapse microscopy. Briefly, breast cancer cell lines SK-BR-3, BT-474, HCC-202, EFM-192C, BT-483, and CAMA-1 and gastric cancer cell lines NCI-N87, OE19, and RERF-GC-1B were seeded in 96-well flat clear-bottom black tissue culture-treated microplates (Corning, cat #3603). Cells were plated at 1.5×10^4-2.5×10^4 cells/200 μL/well in growth medium and allowed to adhere overnight at 37° C. Disitamab, trastuzumab, and isotype control antibody (human IgG) were labeled with IncuCyte Fabfluor-pH Red Antibody Labeling Reagent (Essen Bioscience, cat #4722) according to the manufacturer's protocol. Volumes of the test antibodies, Fabfluor reagent and medium required were calculated at 2× the final assay concentration, and the Fabfluor reagent was added at a molar ratio of 1:3 to the antibody. Fabfluor dye fluoresces only upon exposure to an acidified compartment, namely endocytic vesicles and lysosomes, signifying internalization and intracellular processing of the ADC. Antibody and Fabfluor were mixed gently and incubated at 37° C. for 15 minutes. Media containing Fabfluor-labeled disitamab or trastuzumab ([…] final concentration) was added to cells. The plates were arranged on microplate trays in the IncuCyte SX3 system (Essen Bioscience), and scans were acquired using the Standard protocol. Phase data and red channel data (acquisition time set to 400 ms) were collected, with 4 images per well every 30 minutes for the first 6 hours and every 2 hours after that for up to 40 hours with the objective set at 10×. Quantification of fluorescence signal intensity was performed using the IncuCyte software analysis tool.

[2] = molecular target: T1, HER2; assay: Internalization assay of Fabfluor-labeled disitamab with or without tucatinib (IncuCyte); format: cell-based; parameters: endogenous in cells; host or cells: SK-BR-3, BT-474, HCC-202, EFM-192C, NCI-N87, OE19; conditions: 100 nM tucatinib
Experimental: (§1) The internalization experiments were conducted by detecting an antibody-bound pH sensitive probe using automated time-lapse microscopy. Briefly, breast cancer cell lines SK-BR-3, BT-474, HCC-202, and EFM-192C and gastric cancer cell lines NCI-N87 and OE19 were seeded in 96-well flat clear-bottom black tissue culture-treated microplates (Coming, cat #3603). Cells were plated at 1.5×10^4-2.5×10^4 cells/200 μL/well in growth medium and allowed to adhere overnight at 37° C. Disitamab and isotype control antibody (human IgG) were labeled with IncuCyte Fabfluor-pH Red Antibody Labeling Reagent (Essen Bioscience, cat #4722) according to the manufacturer's protocol. Volumes of the test antibodies, Fabfluor reagent and medium required were calculated at 2× the final assay concentration, and the Fabfluor reagent was added at a molar ratio of 1:3 to the antibody. Antibody and Fabfluor were mixed gently and incubated at 37° C. for 15 minutes. Media containing Fabluor-labeled disitamab ([…] final concentration) with or without tucatinib (100 nM final concentration) was added to cells. The plates were arranged on microplate trays in the IncuCyte SX3 system (Essen Bioscience), and scans were acquired using the Standard protocol. Phase data and red channel data (acquisition time set to 400 ms) were collected, with 4 images per well every 30 minutes for the first 6 hours and every 2 hours after that for up to 72.5 hours with the objective set at 10×. Quantification of fluorescence signal intensity was performed using the IncuCyte software analysis tool. Cell surface HER2 density was quantified using qFACS analysis as described supra.
The analysis was refined and tuned per cell line utilizing phase area confluence and manual image selection for preview and training of the algorithm. Upon completion of the analysis, red object integrated intensity (RCU×μm^2/image) data were graphed using GraphPad Prism. The experiment was performed in duplicate (technical replicates) for two biological replicates.

[3] = tested on: HER2 cell surface protein levels; assay: qFACS analysis of cell-surface HER2 levels upon tucatinib treatment; format: cell-based, human; conditions: 100 nM tucatinib
Experimental: HER2 cell surface levels were determined by qFACS analysis. Briefly, cells were stained with an anti-HER2 antibody (R&D Systems, Inc.; #MAB1129) and Zombie Aqua (BioLegend, Inc.; #423101) for dead cell exclusion. Cells were fixed, and HER2 receptor copy number per cell was quantified using a QIFIKIT (Agilent Dako) per the manufacturer's protocol.
as §1

[4] = tested on: HER2+ locally advanced or metastatic breast cancer (LA/mBC); conditions: subjects that progressed following taxane plus trastuzumab treatment; cited from earlier work

## disitamab
[1]; BT-474
  disitamab internalization as compared to trastuzumab: Increased
[1]; BT-483
  disitamab internalization as compared to trastuzumab: Increased
[1]; CAMA-1
  disitamab internalization as compared to trastuzumab: Increased
[1]; EFM-192C
  disitamab internalization as compared to trastuzumab: Increased
[1]; HCC-202
  disitamab internalization as compared to trastuzumab: Increased
[1]; NCI-N87
  disitamab internalization as compared to trastuzumab: Increased
[1]; OE19
  disitamab internalization as compared to trastuzumab: Increased
[1]; RERF-GC-1B
  disitamab internalization as compared to trastuzumab: Increased
[1]; SK-BR-3
  disitamab internalization as compared to trastuzumab: Increased
[2]; EFM-192C
  disitamab internalization in the presence of tucatinib compared to disitamab alone: increased
[2]; NCI-N87
  disitamab internalization in the presence of tucatinib compared to disitamab alone: increased
[2]; OE19
  disitamab internalization in the presence of tucatinib compared to disitamab alone: increased
[2]; SK-BR-3
  disitamab internalization in the presence of tucatinib compared to disitamab alone: increased

## Cc1cc(Nc2ncnc3ccc(NC4=NC(C)(C)CO4)cc23)ccc1Oc1ccn2ncnc2c1 [tucatinib, Tucatinib]
[3]; BT-474
  cell-surface HER2 levels over time compared with untreated cells: increase
[3]; BT-483
  cell-surface HER2 levels over time compared with untreated cells: increase
[3]; CAMA-1
  cell-surface HER2 levels over time compared with untreated cells: increase
[3]; EFM-192C
  cell-surface HER2 levels over time compared with untreated cells: increase
[3]; HCC-202
  cell-surface HER2 levels over time compared with untreated cells: increase
[3]; NCI-N87
  cell-surface HER2 levels over time compared with untreated cells: increase
[3]; OE19
  cell-surface HER2 levels over time compared with untreated cells: increase
[3]; RERF-GC-1B
  cell-surface HER2 levels over time compared with untreated cells: increase
[3]; SK-BR-3
  cell-surface HER2 levels over time compared with untreated cells: increase

## trastuzumab emtansine [T-DM1]
[4]
  overall response (either complete or partial response): 34.2%
  subjects alive without disease progression at 12 months: 34.1%
